In the test the target is CXCR4 chemokine receptor (mouse, UniProt P70658 1-359). Briefly: cell-based or functional assay.

Bridges are numbered along the chain shown (N, C = ends). [ ]: non-standard residue; d: D form. The star is where a group is joined. 2Nal = N[C@@H](Cc1ccc2ccccc2c1)C(=O)O; Benzoyl(4-F) = O=C(c1ccc(F)cc1)*; Cit = NC(=O)NCCC[C@H](N)C(=O)O

Sequence of CXCR4 chemokine receptor (P70658 whole entry): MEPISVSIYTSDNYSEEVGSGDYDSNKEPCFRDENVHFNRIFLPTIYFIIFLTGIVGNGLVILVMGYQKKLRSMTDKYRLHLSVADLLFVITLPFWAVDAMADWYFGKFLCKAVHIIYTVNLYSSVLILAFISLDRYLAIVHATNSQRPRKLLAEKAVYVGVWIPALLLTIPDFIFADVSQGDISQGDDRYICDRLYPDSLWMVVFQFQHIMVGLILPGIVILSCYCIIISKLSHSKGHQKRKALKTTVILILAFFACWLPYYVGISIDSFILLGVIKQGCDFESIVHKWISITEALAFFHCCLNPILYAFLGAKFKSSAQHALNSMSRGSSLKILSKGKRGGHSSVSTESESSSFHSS

Regarding {Benzoyl(4-F)}-RR[2Nal]CY[Cit]K[dK]PYR[Cit]CR-NH2 (disulfide 4-13 (inferred)), the “Fold increase in neutrophil number in peripheral blood (mice, 5 mg/kg s.c., 2 hours after injection, flow cytometry); BL-8040 composition of Example 1” value was 9.9 fold and the “Fold increase in neutrophil number in peripheral blood (mice, 5 mg/kg s.c., 2 hours after injection, flow cytometry); BL-8040 composition of Reference Example 1” value was 5.6 fold.

The record behind these values is patent US20250195607A1 (BIOLINERX, published 2025).
